Experiment [1] concerns the target cIAP2 BIR1 (Homo sapiens) (UniProt Q13489). Particulars: cited from earlier work.
In experiment [2] the target is T1, TRAF2 segment (recombinant, ITC) (human, UniProt Q12933 1-501).
T1 construct: human TRAF2 segment; it compares with Zheng et al. (2010); source: E. coli BL21 (DE3), purified (Ni-Sepharose, HiTrap Q, Superdex 200); not shown: His-SUMO, N-terminal, cleaved
T1 sequence (looked up): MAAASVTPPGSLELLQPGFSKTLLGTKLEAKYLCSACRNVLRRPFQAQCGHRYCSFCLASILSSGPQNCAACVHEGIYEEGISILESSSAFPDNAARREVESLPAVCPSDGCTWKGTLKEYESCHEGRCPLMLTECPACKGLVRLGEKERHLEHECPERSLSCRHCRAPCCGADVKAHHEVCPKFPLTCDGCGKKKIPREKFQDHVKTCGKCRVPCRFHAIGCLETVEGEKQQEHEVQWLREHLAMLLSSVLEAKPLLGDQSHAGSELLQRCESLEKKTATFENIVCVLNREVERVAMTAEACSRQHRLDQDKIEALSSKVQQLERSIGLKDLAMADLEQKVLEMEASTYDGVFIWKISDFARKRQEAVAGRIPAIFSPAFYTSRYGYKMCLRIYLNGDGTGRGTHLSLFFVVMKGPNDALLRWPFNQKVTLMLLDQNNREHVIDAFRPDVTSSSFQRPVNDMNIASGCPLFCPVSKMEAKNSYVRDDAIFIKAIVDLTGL
The experiment in a line: ITC; cIAP2 protein (2-4 mM) injected into 0.20 mM TRAF2; 16°C; 25 mM Tris-HCl pH 8.0, 150 mM NaCl; MicroCal ITC200. Background: Isothermal titration calorimetry measures the heat released or taken up as one component is titrated into another.

Kd data for three molecules are collected here from paper PMC5823975, “Ubiquitin-Mediated Regulation of RIPK1 Kinase Activity Independent of IKK and MK2” (Molecular Cell, 2018).

Where two headings read alike, the source gives them in different places.

By Kd is commonly meant the concentration at which binding is half-saturated.

Consider TRAF2 (from UniProt Q12933), for which the Kd in experiment [1] is 1700 nM. As to “UBA domain of cIAP2 (from UniProt Q13489 372-425) (domain or fragment)”, the Kd in experiment [2] was 480000 nM.

B1: cIAP2 segment with the BIR1 in conjunction with the UBA domain (domain or fragment)
chain: LSCELYRMSTYSTFPAGVPVSERSLARAGFYYTGVNDKVKCFCCGLMLDNWKRGDSPTEKHKKLYPSCRFVQSLNSVNNLEATSQPTFPSSVTNSTHSLLPGTENSGYFRGSYSNSPSNPVNSRANQDFSALMRSSYHCAMNNENARLLTFQTWPLTFLSPTDLAKAGFYYIGPGDRVACFACGGKLSNWEPKDNAMSEHLRHFPKCPFIENQLQDTSRYTVSNLSMQTHAARFKTFFNWPSSVLVNPEQLASAGFYYVGNSDDVKCFCCDGGLRCWESGDDPWVQHAKWFPRCEYLIRIKGQEFIRQVQASYPHLLEQLLSTSDSPGDENAESSIIHFEPGEDHSEDAIMMNTPVINAAVEMGFSRSLVKQTVQRKILATGENYRLVNDLVLDLLNAEDEIREEERERAT
modifications: Zn2+ bound by the BIR domains
Turning to B1, the equilibrium dissociation constant (Kd) in experiment [2] (both partners purified) turned out to be 430 nM.
